One substance from doi:10.1101/2024.07.12.603331 can be followed below.

pKd: −log10 of the molar value.

A word on the pKd: it is −log10 of the Kd, conventionally taken in molar units. High values mean a low Kd, low ones a high Kd. Broadly, the half-life is the time needed for the level to fall by half in the phase considered. A low value points to fast loss.

The target of the test is HAstV8 spike protein VP25 (residues S484 to R708) (human astrovirus 8 (HAstV8)). The test is described as follows: BLI. (Biolayer interferometry detects binding as a change in optical thickness at a sensor tip.)
HAstV8 spike protein VP25 (residues S484 to R708) (human astrovirus 8 (HAstV8)), sequence (Q9IFX1 424-648 limits assumed): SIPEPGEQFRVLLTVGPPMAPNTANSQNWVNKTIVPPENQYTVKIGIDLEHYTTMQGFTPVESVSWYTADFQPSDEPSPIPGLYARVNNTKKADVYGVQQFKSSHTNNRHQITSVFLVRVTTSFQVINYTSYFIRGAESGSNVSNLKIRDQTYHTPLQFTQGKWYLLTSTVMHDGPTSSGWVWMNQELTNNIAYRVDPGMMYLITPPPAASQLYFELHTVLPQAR

neonatal Fc receptor (FcRn), recombinant ectodomains, sequence (P55899 24-297): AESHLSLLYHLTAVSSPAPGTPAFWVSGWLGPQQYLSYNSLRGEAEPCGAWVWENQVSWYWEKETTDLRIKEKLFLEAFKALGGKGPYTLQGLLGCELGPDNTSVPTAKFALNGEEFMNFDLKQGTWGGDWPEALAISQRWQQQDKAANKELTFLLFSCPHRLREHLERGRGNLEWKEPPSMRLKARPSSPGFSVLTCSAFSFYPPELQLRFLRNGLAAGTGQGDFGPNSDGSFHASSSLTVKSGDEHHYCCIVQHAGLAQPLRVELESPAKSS
neonatal Fc receptor (FcRn), recombinant ectodomains, sequence (P61769 21-119): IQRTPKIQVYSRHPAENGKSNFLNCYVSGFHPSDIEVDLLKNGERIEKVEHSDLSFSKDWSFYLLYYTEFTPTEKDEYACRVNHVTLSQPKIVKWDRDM

Regarding “neonatal Fc receptor (FcRn), recombinant ectodomains (from UniProt P55899;P61769) (complex)”, the pKd is 6.21 and the half-life worked out at 4.68 s.
